Source: patent publication US11549123B2, “Plant EPSP synthases and methods of use” (PIONEER HI-BRED INTERNATIONAL, INC., priority 2015, dated 2023)

What was measured:
[1] = substrate: C=C(OP(=O)(O)O)C(=O)O; test: EPSPS substrate saturation kinetics, rice H6; format: biochemical, Oryza sativa; conditions: other: PEP varied; pH 7.0
Experimental: (§1) EPSPS activity was determined by quantifying the phosphate generated from the EPSPS reaction. Release of inorganic phosphate was coupled to reaction with 2-amino-6-mercapto-7-methylpurine ribonucleoside, catalyzed by purine-nucleoside phosphorylase (M R Webb, Proc. Natl. Acad. Sci. 89:4884-4887, 1992). The absorbance change that occurs was monitored at 360 nm, where the extinction is 11,200 M^−1 cm^−1, with a Spectramax plate reader (Molecular Devices). To determine kinetic parameters, the varied substrate was present at seven concentrations (the eighth being the blank, containing no substrate) ranging from 4 to 400 uM and the unvaried substrate present at saturation. […] Reactions were monitored with a Spectramax plate reader. […] KI was then calculated from the following form of the Michaelis-Menten equation for competitive inhibition: KI=KM[I]/(KM app−KM) KM approximates the dissociation constant of the enzyme-substrate complex while kcat is the rate of conversion of substrate to product when the substrate concentration is saturating. kcat/KM is a widely accepted parameter for catalytic efficiency when substrate concentration is low (˜KM). […] The parameter kcat/KM×KI is used to quantify both catalytic efficiency and insensitivity and thus the overall fitness of the enzyme.
(§2) Native EPSPS amino acid sequences of rice (Oryza sativa) (SEQ ID NO:7), sorghum (Sorghum halepense) (SEQ ID NO:8), and sunflower (Helianthus annus) (SEQ ID NO:9) including the chloroplast transit peptide sequences were assembled and analyzed for mapping the corresponding amino acid mutations from the maize 868-H6. […]
(§3) ChloroP Prediction Server (Emanuelsson, O. et al. 1999. Protein Sci. 8(5):978-84) was used to approximate the amino terminus of the mature EPSPS proteins. […] The synthetic genes were cloned into a plasmid vector and expressed, purified and analyzed as described in Example 1.

[2] = substrate: C=C(OP(=O)(O)O)C(=O)O; test: EPSPS substrate saturation kinetics, 868-H6; format: biochemical, Zea mays; conditions: other: PEP varied; pH 7.0
Experimental: (§4) EPSPS activity was determined by quantifying the phosphate generated from the EPSPS reaction. Release of inorganic phosphate was coupled to reaction with 2-amino-6-mercapto-7-methylpurine ribonucleoside, catalyzed by purine-nucleoside phosphorylase (M R Webb, Proc. Natl. Acad. Sci. 89:4884-4887, 1992). The absorbance change that occurs was monitored at 360 nm, where the extinction is 11,200 M^−1 cm^−1, with a Spectramax plate reader (Molecular Devices). To determine kinetic parameters, the varied substrate was present at seven concentrations (the eighth being the blank, containing no substrate) ranging from 4 to 400 uM and the unvaried substrate present at saturation. Six microliters of 50-fold concentrated stock solutions of the varied substrate were placed in the wells of the 96-well assay plate and reactions were started with the addition of a mixture containing 25 mM Hepes, pH 7, 100 mM KCl, 0.3 mM 2-amino-6-mercapto-7-methylpurine ribonucleosde, 1 uM (1 unit/ml) purine-nucleoside phosphorylase (Sigma N8264) and 200 uM of the non-varied substrate. Reactions were monitored with a Spectramax plate reader. The Michaelis-Menten kinetics protocol of the Spectramax software was customized for the substrate concentrations used. The software returns values of KM and Vmax using the Lineweaver-Burke transformation of the Michaelis-Menten equation. To determine kcat, Vmax (uM/min) was divided by the enzyme concentration (uM). […] KI was then calculated from the following form of the Michaelis-Menten equation for competitive inhibition: KI=KM[I]/(KM app−KM) KM approximates the dissociation constant of the enzyme-substrate complex while kcat is the rate of conversion of substrate to product when the substrate concentration is saturating. kcat/KM is a widely accepted parameter for catalytic efficiency when substrate concentration is low (˜KM). […] The parameter kcat/KM×KI is used to quantify both catalytic efficiency and insensitivity and thus the overall fitness of the enzyme.
(§5) From the functional diversity identified for each, combinatorial libraries were constructed and screened. […]

[3] = substrate: C=C(OP(=O)(O)O)C(=O)O; test: EPSPS substrate saturation kinetics, sorghum H6; format: biochemical, Sorghum halepense; conditions: other: PEP varied; pH 7.0
Experimental: as §1, §2, §3

[4] = substrate: C=C(OP(=O)(O)O)C(=O)O; test: EPSPS substrate saturation kinetics, 123-C1; format: biochemical, Zea mays; conditions: other: PEP varied; pH 7.0
Experimental: as §4, with “enzyme. […]” for “enzyme.”

[5] = substrate: C=C(OP(=O)(O)O)C(=O)O; test: EPSPS substrate saturation kinetics, 771-C2; format: biochemical, Zea mays; conditions: other: PEP varied; pH 7.0
Experimental: as §4, §5

[6] = substrate: C=C(OP(=O)(O)O)C(=O)O; test: EPSPS substrate saturation kinetics, sunflower H6; format: biochemical; conditions: other: PEP varied; pH 7.0
Experimental: as §1, §2, §3

[7] = substrate: C=C(OP(=O)(O)O)C(=O)O; test: EPSPS substrate saturation kinetics, native sorghum; format: biochemical, Sorghum halepense; conditions: other: PEP varied; pH 7.0
Experimental: as §1, §2, §3

[8] = substrate: C=C(OP(=O)(O)O)C(=O)O; test: Substrate saturation kinetic analysis with glyphosate, Zm-T103A; format: biochemical, Zea mays; conditions: other: substrate saturation

B1: Oryza sativa EPSPS with 868-H6 mutations, SEQ ID NO:11 (Oryza sativa; A482G/A67R/A69W/D368S/D468G/E457G/G168A/I274L/K149R/L164C/T345A/T427S/T507Q/V137Q/V504R) (protein)
chain: APARKWEEIVLQPIREISGAVQLPGSKSLSNRILLLSALSEGTTVVDNLLNSEDVHYMLEALKALGLSVEADKQAKRAVVVGCGGRFPVEKDAKEEVQLFCGNAATAMRPLTAAVTAAGGNATYVLDGVPRMRERPIGDLVVGLKQLGADVDCFLGTECPPVRVKGIGGLPGGKVKLSGSISSQYLSALLMAAPLALGDVEIEIIDKLISLPYVEMTLRLMERFGVKAEHSDSWDRFYIKGGQKYKSPGNAYVEGDASSASYFLAGAAITGGTVTVQGCGTASLQGDVKFAEVLEMMGAKVTWTSTSVTVTGPPREPYGKKHLKAVDVNMNKMPDVAMTLAVVALFADGPTAIRDVASWRVKESERMVAIRTELTKLGASVEEGPDYCIITPPGKLNITAIDTYGDHRMAMAFSLAACGDVPVTIRDPGCTRKTFPNYFDRLSQFVRN
Km [1]: 28.9 µM | kcat [1]: 4.88 s⁻¹ | kcat/Km [1]: 167000 M⁻¹ s⁻¹

B2: Zea mays EPSPS variant 868-H6 (A2R, A4W, A72Q, K84R, L98C, G102A, I208L, T279A, E302S, T361S, E391G, D402G, A416G, V438R, T441Q), SEQ ID NO:5 (Zea mays; … (protein)
chain: MRGWEEIVLQPIKEISGTVKLPGSKSLSNRILLLAALSEGTTVVDNLLNSEDVHYMLGALRTLGLSVEADKQAKRAVVVGCGGRFPVEDAKEEVQLFCGNAATAMRPLTAAVTAAGGNATYVLDGVPRMRERPIGDLVVGLKQLGADVDCFLGTDCPPVRVNGIGGLPGGKVKLSGSISSQYLSALLMAAPLALGDVEIEIIDKLISLPYVEMTLRLMERFGVKAEHSDSWDRFYIKGGQKYKSPKNAYVEGDASSASYFLAGAAITGGTVTVEGCGTASLQGDVKFAEVLEMMGAKVTWTSTSVTVTGPPREPFGRKHLKAIDVNMNKMPDVAMTLAVVALFADGPTAIRDVASWRVKESERMVAIRTELTKLGASVEEGPDYCIITPPGKLNVTAIDTYGDHRMAMAFSLAACGEVPVTIRDPGCTRKTFPDYFDRLSQFVKN
Km [2]: 24.0 µM | kcat [2]: 6.43 s⁻¹ | kcat/Km [2]: 268000 M⁻¹ s⁻¹

B3: Sorghum halepense EPSPS with 868-H6 mutations, SEQ ID NO:12 (Sorghum halepense; … (protein)
chain: ARGWEEIVLQPIKEISGTVKLPGSKSLSNRILLLAALSEGTTVVDNLLNSEDVHYMLGALNTLGLSVEADKQAKRAVVVGCGGRFPVEDAKEEVQLFCGNAATAMRPLTAAVTAAGGNATYVLDGVPRMRERPIGDLVVGLKQLGADVDCFLGTDCPPVRINGIGGLPGGKVKLSGSISSQYLSALLMAAPLALGDVEIEIIDKLISLPYVEMTLRLMERFGVKAEHSDSWDRFYIKGGQKYKSPKNAYVEGDASSASYFLAGAAITGGTVTVEGCGTASLQGDVKFAEVLEMMGAKVTWTSTSVTVTGPPRQPFGRKHLKAIDVNMNKMPDVAMTLAVVALFADGPTAIRDVASWRVKESERMVAIRTELTKLGASVEEGPDYCIITPPGKLNVTAIDTYGDHRMAMAFSLAACGEVPVTIRDPGCTRKTFPDYFDRLSQFVKN
Km [3]: 30.6 µM | kcat [3]: 5.28 s⁻¹ | kcat/Km [3]: 167000 M⁻¹ s⁻¹

B4: Zea mays EPSPS variant 123-C1 (A2R, A4W, K84R, L98C, G102A, I208L, K243E, E391P, D402G), SEQ ID NO:6 (Zea mays; A1R/A3W/D401G/E390P/G101A/I207L/K242E/K83R/L97C) (protein)
chain: MRGWEEIVLQPIKEISGTVKLPGSKSLSNRILLLAALSEGTTVVDNLLNSEDVHYMLGALRTLGLSVEADKAAKRAVVVGCGGRFPVEDAKEEVQLFCGNAATAMRPLTAAVTAAGGNATYVLDGVPRMRERPIGDLVVGLKQLGADVDCFLGTDCPPVRVNGIGGLPGGKVKLSGSISSQYLSALLMAAPLALGDVEIEIIDKLISLPYVEMTLRLMERFGVKAEHSDSWDRFYIKGGQKYESPKNAYVEGDASSASYFLAGAAITGGTVTVEGCGTTSLQGDVKFAEVLEMMGAKVTWTETSVTVTGPPREPFGRKHLKAIDVNMNKMPDVAMTLAVVALFADGPTAIRDVASWRVKETERMVAIRTELTKLGASVEEGPDYCIITPPPKLNVTAIDTYGDHRMAMAFSLAACAEVPVTIRDPGCTRKTFPDYFDVLSTFVKN
Km [4]: 24.2 µM | kcat [4]: 7.3 s⁻¹ | kcat/Km [4]: 302000 M⁻¹ s⁻¹

B5: Zea mays EPSPS variant 771-C2 (A4W, H54M, L98C, G102A, K173R, I208L, K243E, E302S, T361S, E391P, D402G, A416G, V438R, S440R, T441Q, F442V), SEQ ID NO:4 (Zea … (protein)
chain: MAGWEEIVLQPIKEISGTVKLPGSKSLSNRILLLAALSEGTTVVDNLLNSEDVMYMLGALRTLGLSVEADKAAKRAVVVGCGGKFPVEDAKEEVQLFCGNAATAMRPLTAAVTAAGGNATYVLDGVPRMRERPIGDLVVGLKQLGADVDCFLGTDCPPVRVNGIGGLPGGKVRLSGSISSQYLSALLMAAPLALGDVEIEIIDKLISLPYVEMTLRLMERFGVKAEHSDSWDRFYIKGGQKYESPKNAYVEGDASSASYFLAGAAITGGTVTVEGCGTTSLQGDVKFAEVLEMMGAKVTWTSTSVTVTGPPREPFGRKHLKAIDVNMNKMPDVAMTLAVVALFADGPTAIRDVASWRVKESERMVAIRTELTKLGASVEEGPDYCIITPPPKLNVTAIDTYGDHRMAMAFSLAACGEVPVTIRDPGCTRKTFPDYFDRLRQVVKN
Km [5]: 21.0 µM | kcat [5]: 5.8 s⁻¹ | kcat/Km [5]: 275000 M⁻¹ s⁻¹

B6: Helianthus annuus EPSPS with 868-H6 mutations, SEQ ID NO:10 (Helianthus annuus; … (protein)
chain: ATTRKWSTAPEEIVLKPIKEISGTVNLPGSKSLSNRILLLAALAEGTTVVDNLLNSDDVHYMLGALRALGLNVEENGQIKRATVEGCGGRFPVGKEAKDEIQLFCGNAATAMRPLTAAVTAAGGNSSYILDGVPRMRERPIGDLVTGLKQLGADVDCFLGTNCPPVRVAANGGLPGGKVKLSGSISSQYLTALLMAAPLALGDVEIEIIDKLISLPYVEMTLKLMERFGVSVEHSDSWDKFYVRGGQKYKSPGNAYVEGDASSASYFLAGAAITGGTVTVEGCGTASLQGDVKFAEVLGQMGAEVTWTSNSVTVRGPPRNASGRGHLRPVDVNMNKMPDVAMTLAVVALYADGPTAIRDVASWRVKESERMIAICTELRKLGATVEEGPDYCVITPPGKLNVTAIDTYGDHRMAMAFSLAACGDVPVTIKDPGCTRKTFPDYFERLEQFTKH
Km [6]: 37.2 µM | kcat [6]: 3.52 s⁻¹ | kcat/Km [6]: 100000 M⁻¹ s⁻¹

B7: Sorghum halepense EPSPS, native, SEQ ID NO:8 (Sorghum halepense) (protein)
chain: AAGAEEIVLQPIKEISGTVKLPGSKSLSNRILLLAALSEGTTVVDNLLNSEDVHYMLGALNTLGLSVEADKVAKRAVVVGCGGKFPVEDAKEEVQLFLGNAGTAMRPLTAAVTAAGGNATYVLDGVPRMRERPIGDLVVGLKQLGADVDCFLGTDCPPVRINGIGGLPGGKVKLSGSISSQYLSALLMAAPLALGDVEIEIIDKLISIPYVEMTLRLMERFGVKAEHSDSWDRFYIKGGQKYKSPKNAYVEGDASSASYFLAGAAITGGTVTVEGCGTTSLQGDVKFAEVLEMMGAKVTWTETSVTVTGPPRQPFGRKHLKAIDVNMNKMPDVAMTLAVVALFADGPTAIRDVASWRVKETERMVAIRTELTKLGASVEEGPDYCIITPPEKLNVTAIDTYDDHRMAMAFSLAACAEVPVTIRDPGCTRKTFPDYFDVLSTFVKN
Km [7]: 17.4 µM | kcat [7]: 50.9 s⁻¹ | kcat/Km [7]: 2.93e+06 M⁻¹ s⁻¹

B8: Zea mays EPSPS variant Zm-T103A (Zea mays; T102A) (protein)
chain: MAGAEEIVLQPIKEISGTVKLPGSKSLSNRILLLAALSEGTTVVDNLLNSEDVHYMLGALRTLGLSVEADKAAKRAVVVGCGGKFPVEDAKEEVQLFLGNAGAAMRPLTAAVTAAGGNATYVLDGVPRMRERPIGDLVVGLKQLGADVDCFLGTDCPPVRVNGIGGLPGGKVKLSGSISSQYLSALLMAAPLALGDVEIEIIDKLISIPYVEMTLRLMERFGVKAEHSDSWDRFYIKGGQKYKSPKNAYVEGDASSASYFLAGAAITGGTVTVEGCGTTSLQGDVKFAEVLEMMGAKVTWTETSVTVTGPPREPFGRKHLKAIDVNMNKMPDVAMTLAVVALFADGPTAIRDVASWRVKETERMVAIRTELTKLGASVEEGPDYCIITPPEKLNVTAIDTYDDHRMAMAFSLAACAEVPVTIRDPGCTRKTFPDYFDVLSTFVKN
notes: native maize plus T103A; E. coli BL21(DE3), Ni-NTA purified
Km [8]: 292 µM | kcat [8]: 7.52 s⁻¹
